This note sets out measurements from a protein production outcome set (Wang et al. 2014).
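Further: failed if final PepcDB status was selected cloned or expressed and not failed if soluble or beyond.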

The data set in a line: label from the status in PepcDB records.
Take “MSNACLASSLLSVCFRLSTERSAMSTSRLRPRCLSVLLAALLLWGGLPTASAQPQRAVRADTLYTMTGDPIENGVVLIENETIAAVGPTSEVDVPASAEVHKASVVTPGLIDPRGTVGLSGIYNVPADQDQLDTSEPMQPALRALDAYNPREQLVSFVQQLGFTTVHTGHAPGALISGQTATFSTAGTTVEASLRDSITTVAFTLGPDAQARFESPGTRAKGVAMLRQALHDAQAAMDGGEPEGGDLGQDVLQDVLRGEVPALITAHRAHDIQTALRLQEEFGFDLILDGAAEAYLMTEEIAEADVPVILHPTMARPSGTTQNAAFTTAGVLHDAGVPVAIQTGWEPYVPKTRIALYEAAIAMAHGLPREAALASITREAAEILGLDNVGTVAPGQRADLALFDGDPFEYTTHVCTVLSGGEVVSDECK”: the protein production entry is “failed”.

“MSNEDNVRQETKNKKEKLRLSFPETRFMKFMGGKDLLFALIMLILIGIAIFIFDQVSYIFKPFIIVFNTIVAPIIVSIILYYLFNPLVNLMERYNISRLWGVIILFLVIIGVIALAINLLIPVIGTQFKSFGNNFPHYVDKVNQFIDNLTRNSLISNFYGQIQEQLDALANKLPSMVSDYFNGFGSKVKNFAEAIVNVGVVIATTPFVLFFMLKDSHHFKEYSTKLMPPKFRKDYHDLLDKMSVQVGSYIQGQIIVSFCIGILLFIGYSIIGLDYSLILASIAAVTSVVPYLGPTIAISPAIIIALITSPIMLLKLIIVWTAVQFIEGHFISPNIMGKTLKIHPLTIIFILLSAGNLLGVVGVILGIPAYAILKVLVSHLYSMYKRRYNKYYGDDAGEYEITNDEQIR”: the protein production result was “failed”.

In the case of “MSNFFSVRIETLGCRLNQVESEALAVRFAECGFDVFSKEAETSILPVKLCIVNTCTVTGKAEQKARRLIRLLLKEHEESVILVTGCYAELEADSIEKINKRIIAFSGKKKDELDGLPQFLKDSCLKNKDLKEDTVNLKKNLLIFRNEIYAKEDQQDKSFLLKETERRKSMFKLSSPVFVFHSRASLKIQDGCNNACAYCRIRLARGTSVSLPAEEAVRRIVQIEKNGAAEVVLSGVNLSQYRDETYGGFANLLAKLLENTKKIRLRISSMYPECVDDGILEIVANKRICPHFHLSIQSGSDKILKAMNRPYREADIRMAINNLRKAKDNPFIGCDIITGFPSETEEDFLQTFKMCEDLKIPGIHVFPFSARPGTKAFSMRPKVPEREAGRRASLLSELSGKNYQSYLASCNGKLFFGVIEKPQNNEDLRIVTENYLSLPLVVNKKAENYKGGEGLFVVIKDGNAYLAD”, the protein production result is “failed”.

On to “MSNFSEGEIFIANIEKKSLECRENDEIVVLKICELCNIIYPIFNKIFGNGFVGDTLKKDLKNSSSQVQRAIEKFPEETKYVSMLYSYNINKYENMEKLKRDLDNGIISFLWMKRTLEFIITFLEKCYITCSETKLSICAQEAYNEVLKKYHGFITSKIVKLCLKLSPTKDILTKKLGFQTHQQASTVLQKCLSITKPLVRDISVTIEKFNCDFEEKI”, for which the protein production entry is listed as “failed”.

As for “MSNKIITLEINLEPSDNHRLASLCGPFDDNIKHLERRLGVEINYRGNFFTIVGQPHTAAAALDIIKTLYVETAPVRGQITDIEPEQIHLAIKESGVLEQHSESSIAHGKEVFVKTKKGVIKPRTPNQAQYLMNMVTHDITFGVGPAGTGKTYLAVAAAVDALERQEIRRILLTRPAVEAGEKLGFLPGDLSQKVDPYLRPLYDALFEMLGFERVEKLIERNVIEVAPLAYMRGRTLNDAFIILDESQNTTVEQMKMFLTRIGFNSRAVITGDVTQIDLPRGAKSGLRHAIEVLNEVDEISFNFFQADDVVRHPVVARIVNAYEKWEAQDQKERKEYEQRRREERENKLLEMQRAEMTLSHNNESNPS”, the protein production result is “failed”.

For “MSNMQLDTLRRIVQEINSSVSLHDSLDIMVNQVADAMKVDVCSIYLLDERNQRYLLMASKGLNPESVGHVSLQLSEGLVGLVGQREEIVNLENASKHERFAYLPETGEEIYNSFLGVPVMYRRKVMGVLVVQNKQPQDFSEAAESFLVTLCAQLSGVIAHAHAVGNID”, the protein production entry is listed as “not failed”.

With “MSNNGSSPLVLWYNQLGMKDVDRVGGKNASLGEMITNLSGMGVSVPNGFATTADAFNQFLDQSGVNQRIYELLDKTDIDDVTQLAKAGAQIRQWIIDTPFQPELENAIREAYAQLSADDENASFAVRSSATAEDMPDASFAGQQETFLNVQGFDAVLVAVKHVFASLFNDRAISYRVHQGYDHRGVALSAGVQRMVRSDLASSGVMFSIDTESGFDQVVFITSAWGLGEMVVQGAVNPDEFYVHKPTLAANRPAIVRRTMGSKKIRMVYAPTQEHGKQVKIEDVPQEQRDIFSLTNEEVQELAKQAVQIEKHYGHPMDIEWAKDGHTGKLFIVQARPETVRSRGQVMERYTLHSQGKIIAEGRAIGHRIGAGPVKVIHDISEMNRIEPGDVLVTDMTDPDWEPIMKKASAIVTNRGGRTCHAAIIARELGIPAVVGCGDATERMKDGENVTVSCAEGDTGYVYAELLEFSVKSSSVETMPDLPLKVMMNVGNPDRAFDFACLPNEGVGLARLEFIINRMIGVHPRALLEFDDQEPQLQNEIREMMKGFDSPREFYVGRLTEGIATLGAAFYPKRVIVRLSDFKSNEYANLVGGERYEPDEENPMLGFRGAGRYVSDSFRDCFALECEAVKRVRNDMGLTNVEIMIPFVRTVDQAKAVVEELARQGLKRGENGLKIIMMCEIPSNALLAEQFLEYFDGFSIGSNDMTQLALGLDRDSGVVSELFDERNDAVKALLSMAIRAAKKQGKYVGICGQGPSDHEDFAAWLMEEGIDSLSLNPDTVVQTWLSLAELKK”, the protein production entry was “failed”.

Regarding “MSNNNKYFTITKKQYKKMRRNKIELLFNVKVLKKKNGRQKFKILHEVENKPKIPIKIIEDQPESPKPLKPPKPPKPPKGPDNPEEPDSPEEPKETDQPGGPDNPNAGNKKMPTPEEYVTRKEFNEFKDSNNQRLTKIENKVDKLEVKVDKLAEIVQTQGEEIKELKVEQKAQSETLQLILKTLQKMNDRLDRMETRLDKIDSPKLEHHHHHH”, the protein production entry was “not failed”.

Take “MSNNQQMMLNRIKVVLAEKQRTNRWLAEQMGKSENTISRWCSNKSQPSLDMLVKVAELLNVDPRQLINGKIKI”: the protein production result is “not failed”.

With “MSNPNEDSPMILQRIFALALLAMCAALAVMAWPYQAAFSYEPVGPRAYPLLVLGLMGLGLLYLVFRPTPIVRKDDEPELDRETLIKITACVGLLIVFAATFEALGFILSAILVGLPMARLYGGRWLQSAIVVAGMSIFLYWLFDRVMDVPLPLGLLSVLEN”, the protein production entry is listed as “failed”.

Take “MSNQYDPSQPVVFTDFSPKEGGMRTRLYIEGSNFGNDPTKIHITIGGEKTKTIGADGKKIYCMVPSKAFDGIINVRVDGPDGKPIAEHTFEEEFKYTPATIVGTLLRKVDEDNNSAFQEGSFDEGASIPSNDCMVFDPKYKDGDNRLLFSSNHSDGLHLIDLTERTVKRLFPRTGYSTMYSFTFSADGDTLLFTDDHGQDNTTRANIYYSLRRENFRRIRPYNYGRTAYSLVYMDDGTIFYTTWWEGKVYKMIRNGAIPNIDENAEVAFSLSQISAVGGSHTILFRHPSNKFMYMLSDNFGAVFRADYDPVAKTFGNPSIIAGNMNDKSFKEGTGGSARFNKPQFGVFVKNEKYGEGIGPDNDQYDFYFCDRENHCIWKLDPHGVASLAAGRSNENADGKIWGYVDGNPLHEARFNQPAGLAYDPDTDMFYIGDIDNKGIRYMTTELEHHHHHH”: the protein production entry is “failed”.

Regarding “MSNSHPLRPFTAVGEIDHVHILSEHIGALLIGEEYGDVTFVVEKKRFPAHRVILAARCQYFRALLYGGMRESQPEAEIPLQDTTAEAFTMLLRYIYTGRATLTDEKEEVLLDFLSLAHKYGFPELEDSTSEYLCTILNIQNVCMTFDVASLYSLPKLTCMCCMFMDRNAQEVLASDGFLSLSKTALLNIVLRDSFAAPEKDIFLALLNWCKHNAKENHAEIMQAVRLPLMSLTELLNVVRPSGLLSPDAILDAIKVRSESRDMDLNYRGMLIPEENIATMKYGAQVVKGELKSALLDGDTQNYDLDHGFSRHPIDDDCRSGIEIKLGQPSIINHIRLLLWDRDSRSYSYFIEVSMDELDWIRVIDHSHYLCRSWQKLYFPARVCRYIRIVGTHNTVNKIFHIVAFECMFTNKAFTLEKGLIAPMENVATIADCASVIEGVSRSRNALLNGDTKNYDWDSGYTCHQLGSGAIVVQLAQPYMIGSIRLLLWDCDDRSYSYYVEVSTNQQQWTMVADRTKVSCKSWQSVTFERQPASFIRIVGTHNTANEVFHCVHFECPEQQSTQKEDSSEEPGTGDLSTPSQQLDPHAPRAPSASSLPPSPGPNLHSPNQQNQ”, the protein production result is “failed”.
